Data: the DeepSol protein solubility set

test: soluble on expression in E. coli; label from the status in PepcDB or PDB records

| Sequence | soluble on expression in E. coli |
| --- | --- |
| GPGSMLVDRLQLSCEGTTTAGFTPLLEQFDKGTATQERGAEERAEGNLTPLRVYFRNKRHSLWGHRLWNAAKYMVKRMDSRMIDVRGKTVLELGAGLGVPSLAAFRNGARCVVATDYPDGDLLEILEMNVKANCRADLIDADAAAFLLQEAERLKLAQGYEKSGETVFSEAERQRALSTRCVVEPLLWGKQEHIQKVMSYTGGGGFDIVLLSDILFNHVCNDDLADTIVRVLQRSQHAAAYCVFSHHRAHKQVEDLEFFDKCVARGLRFEQVDEENYPMMFPDDSGPAEIRQPVKTYKIVHYFDDAGMAFQPGNDVFDVVIQGTGMVESIVSAALARSGIRVLHCDGEDDYGGAFKTMTVERMREYITGPLPASLDGAADNRDGRGDHEENHPRCNDGVIAVDRMDELKLHERRSFLLDLLPTHNLSNGETVRQLITSDMARHME | not soluble |
| MGSDKIHHHHHHMMFQEQIDLLQQKGLYRSLKSVGYIDRQYIEVENKRCTNYTSNDYLGLGQIAFDKDDFERFMRKYSYHLSSSRLISGSSTAYEEIETMLAGWLGYSACTILNSGYDANLALFNIFKNTNCVVFSDQENHASIIDGIKLSGLEKVIYKHLDIADLEKRLEKYPNQNIPKIIISDSVFSTNGDVVDIGQLVSLKHKYNATLILDVSHSFGIENYSNYQGVDILTSSLSKACGAYGGVILSSNDVKDMLINHGRPLIYSSSLPIYNLYFIKRNIEKLINADDRRTKLNSLSKYFNQKLKALNVNYNSSNSPIKFIEFDDIEAAENIHQTLLKHHVFTSYLRYPTVTKPMLRISLSYFHTEQDIDRLFEILHQED | not soluble |
| MTQFTTELLNFLAQKQDIDEFFRSSLETAMNDLLQVELSAFLGYEPYDKAGYNTGNSRNGAYTRRFETKYGVVNLLIPRDRNGEFSPALIPSYGRRDNHLEEMVIKLYRTGVTTREISDIIERMYGHHYSPATVSNISKATQENVASFHERSLEANYTVLYLDGTYLPLRRGTVSKECIHIALGVTSYGHKAILGYDIAPNENNASWSDLLERFKGQGVQQVSLVVSDGFNGLDQLIQQAFPMAKQQRCLVHIGRNIASKVKRADRALILEQFKTIYRAINVEEAKQALDSFINEWKPHYKKVIETLESIENLLIFYEFPHQIWGSIYSTNLIESLNKEIKRQTKKKVVFPNEESLERYLVTLFSDYNFKQGQRIHKGFGQCTDTLESLFD | not soluble |
| MNKKNKFFDIYLELEQDITSGVYPAGTLLPSENVLAKRFSVSRETIRKALVLLLENGCIQKLQGKGSIVIDRERYSFPVSGLTSFKELQKSEQMNATTEVIRNEETTLPDRIADFAGLPHGSNCLAILRVRYLEGEATILDYDYLLDKTEPIANEILEDSLYQYLENEKGYEISYAQKEITVEPLNAEDKKYLALHGDTHVVVVKSTVFLKDTTLFQYTESRHRLDKFRFIDFARRR | not soluble |
| MGSDKIHHHHHHMNQKNILTWGDVAYASRIATGGSKQEWEALELIWQAWEIIIYTGLATYSNKRELLLVVIRFFAIVSFYLEFFNDYYWEYYINNYSREWLKGIHIIPDYNEYIIDCVNGLCCPILPKSEPNNLLLYFVENALQQVMQVPMDSLNSDSMIFKSVWEISHQQFQLDGDIYELQRREAELISESIFLDKIINLAEIHENYNQNNEFIRDEAAIIEIFFDEDNTDLEWMKCTNHIDFQKSQEVIDATNKFIAFFSCYQIKPNFSLKHCSEIIGFNETDLKRWIRTINRKKQIILSGSPGTGKTFIAKHLAEHLIGGSDGFSELLQFHPTYSYEDFIQGIRPQSQDGQLTYPLVPGRFLKFCKEAEYHQGTCVLIIDEINRANLAQVFGELMYLLEYRNREIPLAGGNTFRIPENVRIIGTMNTADRSIANIDHALRRRFAFIELRPNYDVLRRYHQKRGFAVEGLINILQQLNQAIADKNYEIGISFFLTDNLREDMDDIWPMEIEPYLEEYFFNQLAKVDEFRWDKIKDKLWI | not soluble |
| KLLEHVRNILPPNITCLYIRQAEALGLGHAVLCARAAIGDEPFAVILADDLIDAPKGALKQMVEVYGRSGNSILGVETVEASQTGSYGIVETEQLKQFQRITGIVEKPKPEDAPSNLAVVGRYILTPRIFDLLTNLPRGAGNEIQLTDGIAKLLDHEFVLAHPFEGTRYDCGSKLGYLEATVAYGLKHPETGEPFRRLLEKYRTE | not soluble |
| IPTKFVQKVTITKEGKKRVAPQLLTTLSA | soluble |
| MTYLAVVLNGPKAKNGRKVFDSFLEQNRQMFWNRELTSACESITYMGFMRPGTLFVSGPASQLTVLKDAWARRILKPAMGYTITSLGDLGAIQQVEQMHFVPLGDVICDAVAQLNRQGLAATEQAIRQYVARHCPHVAPPGIEMVRQTITSLLSTGFVYKMADHYFVSVPTNSPMRPPAKAATKTTKTTVECQTGASMMCPQQTSTSSDEHVIEPAKKDHKKCQNSNRRSIFARLFSRGMKPQTIMPSASPIHVGGPPTPPPAAMLPTKNKYPTYHHDLNEECQRKARRRNHPRRGETQKLLSSSSECLKYYPVDMPETRPTRRRARMASPLRSSTPNNSDSAYSISPPHTDSNEEAGSISDSEINHTYININKFRRQNFDSTQFEDLTGATATTSEEPEILGRHIRGVLISNL | not soluble |
| MSLHNRFSLAQTLVTTVEAESGTRAGGLTIATANAGYSGTGYITNMTSAADKLTIPVTVPSAGNYQLVIRYNGPYGPKDQDIYVNGVFVSSLHFPETTGYTDLTAGSLTLNAGANTIGIYKNWGYTDFDKISLFTVPLHDYSTVAPNLIDANATPEAKALYNYIKAGYGTRIISGQTSDYYNTVSPNAAKKPVIRAYDFQHYTVGYSYLWNNATASHTFGWEDDGTTQAAIDWYNSTCQKGMVAFHWHWHSPSGGQAGTNTFYTNSTAFDVTKAVTQGTPEYTAVIRDIDSIATQLKRLQAAGVPVLWRPLHEAGGAWFWWGAKGPAAALALYDMVYNRIVNYHNIHNLIWQWSTPEANWYPGNSKVDMLGYDSYPGAYNYGTQKLIFDQLYTIVNGQKILAMTENGPIPDPDLCFSSDAKWAYVMSWSDLVTQQNSSAQLNLVYNHAKVLTLDEVTTATNTAQLTAEGHHHHHH | soluble |
| MAHHHHHHMRLTPLRCSAAAFHFTSLLLQGSGGGYRFFEDMYPKHDPAPRYRYYEDQMQSPTVRSLEPKKQMTETEKLHHLHDWKKDKEGLTPPPEFGWPEEWGPEPGEEGHSEWYRKNRMYMSYEEKSRYDLRVGVPVEKNSMRHQEMPYQKRMKAAYVNLEEKNPQYFDPRQRKYWAEYSYEDQRDTMAKARDDYIKEWLDEPGVTKENVAKKIGDYNGTAKNQNVKSVQRRPEWELAPRPEYDDD | not soluble |
| MNRISTSSVNSSFSYSAPAEEAQNRVSSAPTNSSPPGTTTAVAQASEGQKKPGAVLSMQAQRLRQLCESSSYQYRQNALLAKSFDAQRLDINTQAGPSNSPHLNALNKLQQRDFKPAAGGLEIPFTPKSLLGGGKRVYQIGSSSRDVQVCPRGAGAALRQEIADKQLMVNHLTDELQDAIDEANQAEIANTSQQLRQARSDLAELQRRFAVLGNEDRRINQ | not soluble |
| MAANQNVTKKKKAVIGGIFKAELNNFLMKELAEDGYSGVEVRSTPARAEVIIMATRTQNVLGERGRRIKELTSVVQKRFGFEEGSVELYAEKVSNRGLCAVAQCESLRYKLVGGLAVRRACYGVLRFIMESGAQGVEVIVSGKLRGQRAKAMKFVDGLMIHSGHPVNDYIQQAVRHVQLRQGVIGIKVKIMLPYDPRGQNGPRNALPDHVQIVEPQEEVLPKEPHSQHKEEKKDVQVPAAQPVAPVQ | not soluble |
| MVIKDPRITRFRKMLAQATNYEQWKAAALELDFLEGNAEWKEDFASDLYHYELIYDRLSNLKQYRQQNDFERLKRALREGLHHDLGNMGNPALYTRSRVGTKHLIEEYITQVCESLDYLCDHPVPGFPVYDKLQFFRDTLTSYGRPTLLLSGGASLGMFHFGVIKALWEKGLLPQVIAGSSIGAIIAGILGIHTDAEIPEMLVPESHNLKAWKWRGLLSAMRGTGLMDQDTLRRCLRENIGDYTFEEAYQRTGRSINISVSPVQAHQKARLLCGYTSPYLLVWSAALASAAVPGIFPPVTLMKKDLNGNSLPYMPRLKFVDGSVVSDLPIERLMHLYDVNFTIVSQTNPHVVPFLTDRGQDEKLSLTNLPSHLLKSEVQFHGQGVFDYLRKRVRPEILRQLSGQMYTIMAQRYSGDVTIAPNYSLRHFRRMLANPSPEYVREMILEGERATWPKISMIRSHARISKTLERCVRRLKQQNRRAAELEHHHHHH | not soluble |
| ISEFSDWQETLLEHLTQWVEAEIERDIAVDSHEESQRLLEATFNSPETFIGILDADGTLIRANETALGFIDADAADVCGEPFCETPWWNHDEAVANRCREAVERTRAGETVRFEAEHVGADGQRISTSVVARPVTAD | not soluble |
| MENNTNQENSDALENVSFACIRPEILYFGTPVVLISTIDREGKVNLAPISSAWALGYSVVMGIGTESKTMENLRETGECTLNFPEGALWESVERLAPLTGKYPVPQDKADKFRFESNKFGVAGLTPCDSEVVKPPRVLECRLQMEACVKSVRRISEPDVQAGIVEVKVVRVHARNDLIIDGKYIDPKQWKPLIYSFRHYFTLGCDLGKTFRSKI | not soluble |
| KDWEKVVYGFATLYICSFVLDQVVNSARQSVQFFIISNKYEEIGRHINEYPHRGVTIINATGFYTGREVKMMFVLAKKRESTIIFRLIKDIDPNAFVSQSAVIGVYGEGFDHIKVK | not soluble |
| MAHHHHHHMAYLPPNMAERLQMSSSSTEPTTTSSMLPAPHSSANMRHIEGLVVVPGVVKVSRSDVASQYTMPHTNNAPLLFSEPEHRAVDNSSGSNDAQLEPKDPHLGLMPHCLSCTLLTSAGAQEPDDVYGRSMPSSSAVGAVTTELECAVVPTLHASFTPGVSTSIMPAPTEAHSACGSRPLQQPRWGGNYDSGSQCVSFRGADRSNNVSGCGLRLVGDDVEWLQGSFEDSASSPREEVQLSWGHLQRQPCAGKSSAARAVPPALHDVREGTGGEKVLAAHHRFERAVQPQTQRQGVFPSADQENCQAAAMLWAAQQMAVFD | not soluble |
| MGSDKIHHHHHHMDNPVEEHSPTAQTPVLNLDNVPVGVPLEWPIVDADGTLLFATGTILATTDERNFLFGHFHPQRGDLLDAATQPAPESDAHADPGSPLTLKDMHLEIGALIGVRPQVGSGAPMHPCRIIGFAPNHALFVTPPMHDGRMLPMGLGENIEIVAIASHAVFRFVCTIEAICRSPFDYVVLSKPGVIRRLRERKSIRVRTHLAVRFGIGQSGESYEGLGLAKGVSALGMSLAASWTLGAVGDRLRLAFRLKSKDLDTEIETTAVIRNVQQGSGPGTPSTHGLELDQLDATQQMAMKVFVFDRQDDVVYWSSGLK | not soluble |
| SSNAKIDQLSSDVQTLNAKVDQASNDANAARSDAQAAKDDAARANQRLDNMATKYR | soluble |
| GPGSMIGLYRVVQFVHLTFFSTGHDLKRRYSKAGDWAVVTGGTEGIGRAVALDLANRGFNVCVISRTQSKLDEVVAEIEKCGTRGHSIAFDFATAGEAEYKMLFAKLDSLAVGLLVNNVGVNYTYANYFDEADVVDDLRIIKVNCEATTRMTKFFAPRMKARRAGGIVLLGSFSAVTPAPLLATYAGTKAFNVSFGDALFYELKKFGVDVLVVTPNLVVSRMTQGASTRAPKETFLTVGAAAMARQTLNQLGVVNRTAGHRNHIIIEAIARLLPESLRGEKMLAMHESIKKRAERKAKQ | not soluble |
| MRYCQFEGCSNTTEKGAYCSEHARKSRKKKKPINVYHHDNKSFYRTKEWQDVADFVYEREGGCCQRCGRFVFGRQAHRHHVIPIKKNEMLKLDPNNIRLLCPKCHVIEENEADEKKVFPSYFKKLEHHHHHH | soluble |
